Data taken from US20210395323A1 (UNIVERSIT T STUTTGART, published 2021).

T1: mouse TNFR2-Fc fusion protein (mouse, UniProt P25119 23-258, limits assumed)
T1 construct: also called mTNFR2-Fc; mTNFR2
T1 sequence (looked up): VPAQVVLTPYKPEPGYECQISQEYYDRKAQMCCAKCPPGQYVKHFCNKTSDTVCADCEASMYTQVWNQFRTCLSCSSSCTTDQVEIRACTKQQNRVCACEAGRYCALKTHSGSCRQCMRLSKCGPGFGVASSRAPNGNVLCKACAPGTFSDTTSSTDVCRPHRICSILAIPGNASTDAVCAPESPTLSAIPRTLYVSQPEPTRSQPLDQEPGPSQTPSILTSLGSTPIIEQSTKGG

T2: TNFR2 on BV-2 cells (UniProt P25119 23-474, limits assumed)
T2 sequence (looked up): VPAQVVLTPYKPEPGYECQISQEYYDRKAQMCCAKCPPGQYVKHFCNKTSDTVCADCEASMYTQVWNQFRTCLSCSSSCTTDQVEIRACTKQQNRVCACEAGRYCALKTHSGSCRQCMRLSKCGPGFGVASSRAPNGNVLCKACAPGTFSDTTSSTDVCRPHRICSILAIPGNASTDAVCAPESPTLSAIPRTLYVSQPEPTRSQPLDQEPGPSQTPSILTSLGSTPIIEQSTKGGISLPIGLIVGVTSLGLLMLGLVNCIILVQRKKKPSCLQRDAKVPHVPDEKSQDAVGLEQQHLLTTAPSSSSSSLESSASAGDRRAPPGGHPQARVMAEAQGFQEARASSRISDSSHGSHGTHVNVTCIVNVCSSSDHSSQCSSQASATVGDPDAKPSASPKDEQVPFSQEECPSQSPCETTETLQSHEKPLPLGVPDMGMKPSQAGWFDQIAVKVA

T3: TNFR2 on human cells (Kym-1 cells; human CD3+ T cells) (human, UniProt P20333 23-461)
T3 sequence (looked up): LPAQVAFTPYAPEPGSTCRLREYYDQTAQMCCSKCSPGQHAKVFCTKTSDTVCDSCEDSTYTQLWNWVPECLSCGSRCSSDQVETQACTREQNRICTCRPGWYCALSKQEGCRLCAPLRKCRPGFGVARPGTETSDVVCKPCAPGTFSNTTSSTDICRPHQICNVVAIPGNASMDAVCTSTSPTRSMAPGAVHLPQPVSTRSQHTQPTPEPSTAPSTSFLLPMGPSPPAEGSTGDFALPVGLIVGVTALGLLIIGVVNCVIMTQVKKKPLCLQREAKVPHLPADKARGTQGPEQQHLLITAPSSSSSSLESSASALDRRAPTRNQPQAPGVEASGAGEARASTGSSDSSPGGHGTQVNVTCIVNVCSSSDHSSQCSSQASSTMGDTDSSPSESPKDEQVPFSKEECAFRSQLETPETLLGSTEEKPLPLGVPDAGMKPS

T4: human TNFR2-Fc fusion protein (human, UniProt P20333 23-257)
T4 construct: also called huTNFR2-Fc; huTNFR2
T4 sequence (looked up): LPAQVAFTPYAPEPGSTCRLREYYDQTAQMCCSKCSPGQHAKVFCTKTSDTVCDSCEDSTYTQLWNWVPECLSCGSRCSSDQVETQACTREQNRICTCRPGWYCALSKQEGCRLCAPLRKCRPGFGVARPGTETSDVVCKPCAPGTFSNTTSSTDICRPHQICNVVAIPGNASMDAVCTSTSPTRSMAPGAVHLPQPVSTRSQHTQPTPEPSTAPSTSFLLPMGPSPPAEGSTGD

T5: TNFR2 on primary mouse cells (thymocytes and CD3+ T cells of C57BL/6 mice) (mouse, UniProt P25119 23-474)
T5 sequence (looked up): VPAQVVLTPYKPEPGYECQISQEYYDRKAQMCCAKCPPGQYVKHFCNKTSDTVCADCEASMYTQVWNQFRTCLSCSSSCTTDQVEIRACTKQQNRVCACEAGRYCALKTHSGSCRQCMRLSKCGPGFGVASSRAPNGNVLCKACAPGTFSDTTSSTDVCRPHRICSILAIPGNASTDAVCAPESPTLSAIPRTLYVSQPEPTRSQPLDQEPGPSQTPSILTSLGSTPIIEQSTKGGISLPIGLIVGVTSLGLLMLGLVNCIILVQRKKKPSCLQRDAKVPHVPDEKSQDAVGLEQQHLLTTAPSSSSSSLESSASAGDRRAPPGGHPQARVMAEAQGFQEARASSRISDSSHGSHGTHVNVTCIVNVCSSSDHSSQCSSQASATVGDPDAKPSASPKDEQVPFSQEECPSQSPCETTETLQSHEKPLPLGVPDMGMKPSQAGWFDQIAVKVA


How the values were obtained:
[1] = target: T1, mouse TNFR2-Fc fusion protein; experiment: ELISA, mTNFR2-Fc coated at 1 µg/ml, bound protein detected with anti-TNF F6C5
Experimental: (§1) ELISA plates (Greiner, Frickenhausen, Germany) were coated with huTNFR1-Fc, mTNFR1-Fc, huTNFR2-Fc or mTNFR2-Fc fusion proteins at 1 μg/ml in PBS and incubated at 4° C. overnight. Residual binding sites were blocked with 2% skim milk powder in PBS at RT for 2 hours. ScTNFR2 and the complexes were diluted in 2% skim milk powder in PBS and added at concentrations in the range of 10⁻³ to 10 nM and incubated for 1 hour at RT. Between each step, non-bound proteins were removed by washing 4 times with 0.005% Tween-20 in PBS.
(§2) Bound proteins were detected with mouse monoclonal antibodies to TNF (clone F6C5; 1 μg/ml; incubation for 1 hour at RT) and HRP-conjugated anti-mouse IgG antibodies (diluted 1:10000; incubation for 1 hour at RT), followed by incubation with tetramethylbenzidine (TMB) substrate solution. Reaction was stopped by addition of 1 M H₂SO₄ and the absorbance at 450 nm was determined with a Multiskan FC absorbance reader (Thermo Scientific, Karlsruhe, Germany) and data were analyzed using the software Microsoft Excel and GraphPad Prism 4 (GraphPad, La Jolla, Calif.) (FIG. 5). In Table 3, the calculated EC₅₀ values for the binding of TNF, scTNFR2 and the complexes to immobilized huTNFR2 and mTNFR2 based on the ELISA assay are summarized.

TNFR2 on BV-2 cells = target: T2, TNFR2 on BV-2 cells; experiment: cell-based or functional assay
[2] = target: T3, TNFR2 on human cells (Kym-1 cells; …); experiment: cell-based or functional assay
[3] = target: T4, human TNFR2-Fc fusion protein; experiment: quartz crystal microbalance (Attana Cell 200), human TNFR2-Fc immobilised at low density (130 Hz), 37° C
Experimental: (§3) Affinities of scTNFR2 and the complexes for human TNFR2-Fc were further determined by quartz crystal microbalance measurements using an Attana Cell 200 (Attana, Stockholm, Sweden). Human TNFR2-Fc was chemically immobilized on a carboxyl sensor chip according to the manufacturer's protocol at a high and low density, respectively. Binding experiments were performed in PBST buffer (PBS, 0.1% Tween 20, pH 7.4) with a flow rate of […] at 37° C. The chip was regenerated with 10 mM Glycine-HCl, pH 2.0. Before each measurement, a baseline was measured which was subtracted from the binding curve. Data were collected using the software provided by Attana for the particular device and analyzed by Attaché Office Evaluation software (Attana, Stockholm, Sweden) and TraceDrawer (Ridgview Instruments, Vange, Sweden) (FIG. 6). In Table 4, binding values for the binding of the hexavalent and dodecavalent mouse complexes to TNFR2 are summarized, which have been calculated based on quartz crystal microbalance measurements on a low density chip. In Table 5, binding values for the binding of the sc-mTNFR2 and the hexavalent and dodecavalent mouse proteins to TNFR2 are summarized, which have been calculated based on quartz crystal microbalance measurements on a high density chip.

[4] = target: T5, TNFR2 on primary mouse cells …; experiment: cell-based or functional assay
[5] = target: T4, human TNFR2-Fc fusion protein; experiment: quartz crystal microbalance (Attana Cell 200), human TNFR2-Fc immobilised at high density (270 Hz), 37° C
Experimental: as §3

[6] = target: T4, human TNFR2-Fc fusion protein; experiment: ELISA, huTNFR2-Fc coated at 1 µg/ml, bound protein detected with anti-TNF F6C5
Experimental: as §1, §2

EC50 [1]	EC50 values (nM) of Cxcl-2 secretion (BV-2 cells, ELISA) (TNFR2 on BV-2 cells)	Kd [3]	koff [3]	kon [3]	EC50 values (nM) of thymocyte proliferation induction (MTT assay) [4]	Kd [5]	koff [5]	kon [5]	EC50 [6]	Binder	EC50 values (nM) of cell death induction using Kym-1 cells [2]
0.0744 nM	0.13 nM	50.9 nM	0.0651 s⁻¹	1.28e+06 M⁻¹ s⁻¹	0.065 nM	0.0437 nM	2.69e-05 s⁻¹	616000 M⁻¹ s⁻¹		p53-sc-mTNFR2 (mouse) (ligand, Dodecavalent tetramer of four subunits) KKPLDGEYFTLQIRGRERFEMFRELNEALELKDAQAGKEPGAPGGGSGGGSGGGSGGGSGGGSGGSGIRSDKPVAHVVANHQVEEQLEWLSQRANALLANGMDLKDNQLVVPADGLYLVYSQVLFKGQGCPDYVLLTHTVSRFAISYQEKVNLLSAVKSPCPKDTPEGAELKPWYEPIYLGGVFQLEKGDQLSAEVNLPKYLNFRESGQVYFGVIALGGGGSSSDKPVAHVVANHQVEEQLEWLSQRANALLANGMDLKDNQLVVPADGLYLVYSQVLFKGQGCPDYVLLTHTVSRFAISYQEKVNLLSAVKSPCPKDTPEGAELKPWYEPIYLGGVFQLEKGDQLSAEVNLPKYLNFRESGQVYFGVIALGGGGSSSDKPVAHVVANHQVEEQLEWLSQRANALLANGMDLKDNQLVVPADGLYLVYSQVLFKGQGCPDYVLLTHTVSRFAISYQEKVNLLSAVKSPCPKDTPEGAELKPWYEPIYLGGVFQLEKGDQLSAEVNLPKYLNFRESGQVYFGVIAL	0.0562 nM
									0.094 nM	p53-scTNFR2 (human) (ligand) KKPLDGEYFTLQIRGRERFEMFRELNEALELKDAQAGKEPGAPGGGSGGGSGGGSGGGSGGGSGGSEFLASSRTPSDKPVAHVVANPQAEGQLQWLNRRANALLANGVELRDNQLVVPSEGLYLIYSQVLFKGQGCPSTHVLLTHTISRIAVSYQTKVNLLSAIKSPCQRETPEGAEAKPWYEPIYLGGVFQLEKGDRLSAEINRPDYLNFRESGQVYFGIIALGGGGSSSRTPSDKPVAHVVANPQAEGQLQWLNRRANALLANGVELRDNQLVVPSEGLYLIYSQVLFKGQGCPSTHVLLTHTISRIAVSYQTKVNLLSAIKSPCQRETPEGAEAKPWYEPIYLGGVFQLEKGDRLSAEINRPDYLNFRESGQVYFGIIALGGGGSSSRTPSDKPVAHVVANPQAEGQLQWLNRRANALLANGVELRDNQLVVPSEGLYLIYSQVLFKGQGCPSTHVLLTHTISRIAVSYQTKVNLLSAIKSPCQRETPEGAEAKPWYEPIYLGGVFQLEKGDRLSAEINRPDYLNFRESGQVYFGIIAL	0.0106 nM

More lines, now with the values behind:

Binder	EC50 [1]	EC50 values (nM) of Cxcl-2 secretion (BV-2 cells, ELISA) (TNFR2 on BV-2 cells)	Kd [3]	koff [3]	kon [3]	EC50 values (nM) of thymocyte proliferation induction (MTT assay) [4]	Kd [5]	koff [5]	kon [5]	EC50 [6]	EC50 values (nM) of cell death induction using Kym-1 cells [2]
EHD2-sc-mTNFR2 (mouse) (ligand, Hexavalent dimer of two subunits; also called hexavalent (EHD2-sc-mTNFR2)) DFTPPTVKILQSSCDGGGHFPPTIQLLCLVSGYTPGTINITWLEDGQVMDVDLSTASTTQEGELASTQSELTLSQKHWLSDRTYTCQVTYQGHTFEDSTKKCADSNGGGSGGGSGGGSGGGSGGGSGGSGIRSDKPVAHVVANHQVEEQLEWLSQRANALLANGMDLKDNQLVVPADGLYLVYSQVLFKGQGCPDYVLLTHTVSRFAISYQEKVNLLSAVKSPCPKDTPEGAELKPWYEPIYLGGVFQLEKGDQLSAEVNLPKYLNFRESGQVYFGVIALGGGGSSSDKPVAHVVANHQVEEQLEWLSQRANALLANGMDLKDNQLVVPADGLYLVYSQVLFKGQGCPDYVLLTHTVSRFAISYQEKVNLLSAVKSPCPKDTPEGAELKPWYEPIYLGGVFQLEKGDQLSAEVNLPKYLNFRESGQVYFGVIALGGGGSSSDKPVAHVVANHQVEEQLEWLSQRANALLANGMDLKDNQLVVPADGLYLVYSQVLFKGQGCPDYVLLTHTVSRFAISYQEKVNLLSAVKSPCPKDTPEGAELKPWYEPIYLGGVFQLEKGDQLSAEVNLPKYLNFRESGQVYFGVIAL	0.112 nM	0.44 nM	118 nM	0.063 s⁻¹	533000 M⁻¹ s⁻¹	0.07 nM	0.0615 nM	3.74e-05 s⁻¹	607000 M⁻¹ s⁻¹		0.453 nM
mouse single-chain TNF variant (D221N/A223R, sc-mTNFR2) (ligand, Trivalent single chain; also called TNFR2-selective mouse TNF variant; trivalent (sc-mTNFR2)) SDKPVAHVVANHQVEEQLEWLSQRANALLANGMDLKDNQLVVPADGLYLVYSQVLFKGQGCPDYVLLTHTVSRFAISYQEKVNLLSAVKSPCPKDTPEGAELKPWYEPIYLGGVFQLEKGDQLSAEVNLPKYLNFRESGQVYFGVIALGGGGSSSDKPVAHVVANHQVEEQLEWLSQRANALLANGMDLKDNQLVVPADGLYLVYSQVLFKGQGCPDYVLLTHTVSRFAISYQEKVNLLSAVKSPCPKDTPEGAELKPWYEPIYLGGVFQLEKGDQLSAEVNLPKYLNFRESGQVYFGVIALGGGGSSSDKPVAHVVANHQVEEQLEWLSQRANALLANGMDLKDNQLVVPADGLYLVYSQVLFKGQGCPDYVLLTHTVSRFAISYQEKVNLLSAVKSPCPKDTPEGAELKPWYEPIYLGGVFQLEKGDQLSAEVNLPKYLNFRESGQVYFGVIAL	1.55 nM	1.07 nM					0.449 nM	0.000399 s⁻¹	808000 M⁻¹ s⁻¹		
GCN4-sc-mTNFR2 (mouse) (ligand, Dodecavalent tetramer of four subunits) not shown	0.0452 nM	0.03 nM	16.1 nM	0.0347 s⁻¹	2.16e+06 M⁻¹ s⁻¹	0.0185 nM	0.0527 nM	8.77e-05 s⁻¹	1.67e+06 M⁻¹ s⁻¹		0.0057 nM
